Measurements: article PMC6827426 (Translational Vision Science & Technology, 2019)
Positions count from the first letter of the chain named.

B1: RBZ–3 (Fab, V domains shown)
VH: EVQLVESGGGLVQPGGSLRLSCAASGYDFTHYGMNWVRQAPGKGLEWVGWINTYTGEPTYAADFKRRFTFSLDTSKSTAYLQMNSLRAEDTAVYYCAKYPYYYGTSHWYFDVWGQGTLVTVSS
VL: DIQLTQSPSSLSASVGDRVTITCSASQDISNYLNWYQQKPGKAPKVLIYDTSDLESGVPSRFSGSGSGTDFTLTISSLQPEDFATYYCQQYSTVPWTFGQGTKVEIK
notes: as the light chain of m1 (ranibizumab) before CDR-L1; CDR-L1, same as ranibizumab; as the light chain of m1 (ranibizumab) between CDR-L1 and CDR-L2; CDR-L2, changed from FTSSLHS of ranibizumab; as the light chain of m1 (ranibizumab) after CDR-L2; as the heavy chain of m1 (ranibizumab Fab), unchanged; Charge variant, relative charge -3 against ranibizumab; changes only in CDR-L2; also called TA_2; …
B2: RBZ-HI high (Fab, V domains shown)
VH: B1 VH
VL: B1 VL with A25V, D28V, N31S, Y32W, N34A, D50F, T51A, D53S, E55Q, S56T
notes: as the light chain of m1 (ranibizumab) before CDR-L1; as the light chain of m1 (ranibizumab) between CDR-L1 and CDR-L2; CDR-L2, changed from FTSSLHS of ranibizumab; as the light chain of m1 (ranibizumab) after CDR-L2; as the heavy chain of m1 (ranibizumab Fab), unchanged; Hydrophobicity variant; source: E. coli, 10 L fermentation, purified (Protein G-Sepharose, cation exchange Hitrap SP HP)
B3: RBZ-HI low (Fab, V domains shown)
VH: B1 VH
VL: B1 VL with S24Q, Y32S, D50S, D53N, E55H
notes: as for B2
B4: RBZ+7 (Fab, V domains shown)
VH: B1 VH
VL: B1 VL with S24R, S26R, D28G, S30R, D50K, D53R, L54R, E55H
notes: as the light chain of m1 (ranibizumab) before CDR-L1; as the light chain of m1 (ranibizumab) between CDR-L1 and CDR-L2; CDR-L2, changed from FTSSLHS of ranibizumab; as the light chain of m1 (ranibizumab) after CDR-L2; as the heavy chain of m1 (ranibizumab Fab), unchanged; Charge variant, relative charge +7 against ranibizumab; also called TA_3; source: E. coli, 10 L fermentation, purified …

What follows are binders tested against T1, vascular endothelial growth factor (VEGF) (Homo sapiens, UniProt P15692-4) (assay: SPR; Biacore T200; VEGF immobilised, Fabs as analyte). Settings: both partners purified.
T1 construct: vascular endothelial growth factor (VEGF-A); The SPR paragraph says only 'immobilized VEGF'; also called recombinant human VEGF
T1 sequence (P15692 whole entry): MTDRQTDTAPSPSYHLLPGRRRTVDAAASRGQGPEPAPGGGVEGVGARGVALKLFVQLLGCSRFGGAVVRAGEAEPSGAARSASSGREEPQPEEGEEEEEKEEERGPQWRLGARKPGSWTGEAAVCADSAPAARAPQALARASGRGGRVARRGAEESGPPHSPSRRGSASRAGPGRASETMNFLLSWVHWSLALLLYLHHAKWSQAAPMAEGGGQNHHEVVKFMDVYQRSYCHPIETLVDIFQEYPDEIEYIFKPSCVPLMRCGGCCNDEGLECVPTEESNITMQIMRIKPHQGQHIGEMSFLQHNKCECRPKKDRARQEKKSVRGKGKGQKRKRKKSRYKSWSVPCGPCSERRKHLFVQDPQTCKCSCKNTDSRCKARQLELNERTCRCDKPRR

Kd [nM] | Binder
< 5 | B1
< 5 | B2
< 5 | B3
< 5 | B4
